According to US20120142597A1 (GEORGIA TECH RESEARCH, published 2012):

B1: RGD peptide (GRGDSPC) (peptide)
peptide: GRGDSPC
B2: monobiotinylated recombinant fibronectin fragment FNIII7-10 (ligand)
chain: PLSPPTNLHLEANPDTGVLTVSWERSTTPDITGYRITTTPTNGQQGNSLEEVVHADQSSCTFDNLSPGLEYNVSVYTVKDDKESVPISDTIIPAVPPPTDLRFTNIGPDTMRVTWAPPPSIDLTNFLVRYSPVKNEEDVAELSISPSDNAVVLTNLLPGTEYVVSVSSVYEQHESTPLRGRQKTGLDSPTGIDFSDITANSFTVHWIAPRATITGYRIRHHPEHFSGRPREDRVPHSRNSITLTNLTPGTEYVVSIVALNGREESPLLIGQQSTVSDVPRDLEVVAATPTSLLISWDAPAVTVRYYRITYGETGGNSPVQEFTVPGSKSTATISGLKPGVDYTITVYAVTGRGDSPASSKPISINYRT
modifications: single biotin on the N-terminal biotin tagging sequence (monobiotinylated)
B3: RGD-PHSRN peptide (GRGDG13PHSRN) (peptide)
peptide: GRGDGGGGGGGGGGGGGPHSRN
notes: Synthetic; tethered to SAMs

Columns and labels:
[1] = molecular target: αvβ3 integrin on MC3T3-E1 murine osteoblast-like cells (mouse, UniProt P43406 31-1044; O54890 26-787); experiment: cell-based or functional assay
Chain of αvβ3 integrin on MC3T3-E1 murine osteoblast-like cells (P43406 31-1044, chain 1 of 2): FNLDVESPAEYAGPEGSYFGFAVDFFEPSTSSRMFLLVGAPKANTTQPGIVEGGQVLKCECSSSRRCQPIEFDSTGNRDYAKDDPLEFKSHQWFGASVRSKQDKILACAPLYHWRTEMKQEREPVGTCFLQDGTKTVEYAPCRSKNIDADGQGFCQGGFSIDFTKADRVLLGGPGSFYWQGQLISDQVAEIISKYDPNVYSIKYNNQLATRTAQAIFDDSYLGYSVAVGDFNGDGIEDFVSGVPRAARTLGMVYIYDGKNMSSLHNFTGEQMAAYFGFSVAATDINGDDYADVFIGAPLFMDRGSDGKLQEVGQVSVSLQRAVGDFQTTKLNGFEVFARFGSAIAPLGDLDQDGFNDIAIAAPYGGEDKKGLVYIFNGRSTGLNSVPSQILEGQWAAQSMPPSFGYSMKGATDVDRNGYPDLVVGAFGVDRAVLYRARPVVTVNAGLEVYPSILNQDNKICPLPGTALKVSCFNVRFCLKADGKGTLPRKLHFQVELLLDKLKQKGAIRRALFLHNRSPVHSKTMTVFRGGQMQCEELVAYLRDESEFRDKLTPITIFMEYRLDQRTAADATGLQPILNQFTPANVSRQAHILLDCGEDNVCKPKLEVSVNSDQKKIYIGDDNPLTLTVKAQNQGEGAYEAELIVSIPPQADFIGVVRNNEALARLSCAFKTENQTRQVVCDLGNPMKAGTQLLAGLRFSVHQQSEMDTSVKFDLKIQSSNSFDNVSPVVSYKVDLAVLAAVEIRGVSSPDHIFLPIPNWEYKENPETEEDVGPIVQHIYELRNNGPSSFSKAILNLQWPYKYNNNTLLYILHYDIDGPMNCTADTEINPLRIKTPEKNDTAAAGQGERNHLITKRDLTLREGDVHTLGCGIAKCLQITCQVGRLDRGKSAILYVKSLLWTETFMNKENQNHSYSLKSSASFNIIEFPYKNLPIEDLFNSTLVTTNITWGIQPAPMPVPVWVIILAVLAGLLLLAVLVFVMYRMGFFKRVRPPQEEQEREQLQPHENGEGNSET
Chain of αvβ3 integrin on MC3T3-E1 murine osteoblast-like cells (O54890 26-787, chain 2 of 2): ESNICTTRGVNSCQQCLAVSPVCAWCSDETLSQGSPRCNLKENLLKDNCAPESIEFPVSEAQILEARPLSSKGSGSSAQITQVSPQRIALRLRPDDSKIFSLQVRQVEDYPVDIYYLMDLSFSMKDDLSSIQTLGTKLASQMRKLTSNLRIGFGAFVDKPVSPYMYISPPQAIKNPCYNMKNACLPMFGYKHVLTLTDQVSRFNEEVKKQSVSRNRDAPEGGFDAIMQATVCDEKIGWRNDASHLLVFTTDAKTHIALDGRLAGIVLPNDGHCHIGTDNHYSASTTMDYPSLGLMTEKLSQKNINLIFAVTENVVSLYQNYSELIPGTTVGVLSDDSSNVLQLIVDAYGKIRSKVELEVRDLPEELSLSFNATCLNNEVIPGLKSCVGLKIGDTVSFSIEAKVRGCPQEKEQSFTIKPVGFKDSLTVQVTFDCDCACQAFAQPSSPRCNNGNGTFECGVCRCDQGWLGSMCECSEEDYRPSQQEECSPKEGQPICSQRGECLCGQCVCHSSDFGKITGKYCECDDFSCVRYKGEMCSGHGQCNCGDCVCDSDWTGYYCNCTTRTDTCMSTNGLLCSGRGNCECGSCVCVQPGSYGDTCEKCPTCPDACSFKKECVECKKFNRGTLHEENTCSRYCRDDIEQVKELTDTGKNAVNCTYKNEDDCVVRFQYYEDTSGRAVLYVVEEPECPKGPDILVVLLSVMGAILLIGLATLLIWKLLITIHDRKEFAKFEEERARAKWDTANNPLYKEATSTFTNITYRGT

[2] = molecular target: T1, α5β1 integrin on MC3T3-E1 murine osteoblast-like cells (mouse, UniProt P11688 45-1053; P09055 21-798); experiment: cell-based or functional assay
T1 sequence (P11688 45-1053, chain 1 of 2): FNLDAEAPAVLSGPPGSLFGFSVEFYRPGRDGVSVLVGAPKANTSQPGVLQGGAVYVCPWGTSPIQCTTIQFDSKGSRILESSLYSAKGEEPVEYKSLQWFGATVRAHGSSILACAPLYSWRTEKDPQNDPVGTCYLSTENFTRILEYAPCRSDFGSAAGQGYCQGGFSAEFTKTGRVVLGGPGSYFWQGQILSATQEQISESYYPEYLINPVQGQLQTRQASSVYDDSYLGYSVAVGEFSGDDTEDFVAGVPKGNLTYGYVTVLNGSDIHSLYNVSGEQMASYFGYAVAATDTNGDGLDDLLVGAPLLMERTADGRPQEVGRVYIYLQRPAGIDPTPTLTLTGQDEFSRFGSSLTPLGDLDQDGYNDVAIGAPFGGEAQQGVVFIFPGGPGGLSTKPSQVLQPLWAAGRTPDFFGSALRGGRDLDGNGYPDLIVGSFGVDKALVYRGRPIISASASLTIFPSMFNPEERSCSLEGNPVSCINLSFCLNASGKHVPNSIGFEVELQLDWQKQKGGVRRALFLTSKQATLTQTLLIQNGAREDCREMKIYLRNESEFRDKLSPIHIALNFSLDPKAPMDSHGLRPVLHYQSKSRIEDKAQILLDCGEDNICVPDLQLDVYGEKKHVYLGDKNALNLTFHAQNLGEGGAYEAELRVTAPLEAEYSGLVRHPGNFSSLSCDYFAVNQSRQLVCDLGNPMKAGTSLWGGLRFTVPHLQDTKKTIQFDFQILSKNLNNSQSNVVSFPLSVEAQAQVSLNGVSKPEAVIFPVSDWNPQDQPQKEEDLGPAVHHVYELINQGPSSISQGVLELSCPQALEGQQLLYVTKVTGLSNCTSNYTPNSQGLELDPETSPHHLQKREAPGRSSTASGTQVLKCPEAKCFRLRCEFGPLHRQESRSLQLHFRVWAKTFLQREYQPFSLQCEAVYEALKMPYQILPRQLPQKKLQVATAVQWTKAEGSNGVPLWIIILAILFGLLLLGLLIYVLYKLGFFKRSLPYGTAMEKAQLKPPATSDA
T1 sequence (P09055 21-798, chain 2 of 2): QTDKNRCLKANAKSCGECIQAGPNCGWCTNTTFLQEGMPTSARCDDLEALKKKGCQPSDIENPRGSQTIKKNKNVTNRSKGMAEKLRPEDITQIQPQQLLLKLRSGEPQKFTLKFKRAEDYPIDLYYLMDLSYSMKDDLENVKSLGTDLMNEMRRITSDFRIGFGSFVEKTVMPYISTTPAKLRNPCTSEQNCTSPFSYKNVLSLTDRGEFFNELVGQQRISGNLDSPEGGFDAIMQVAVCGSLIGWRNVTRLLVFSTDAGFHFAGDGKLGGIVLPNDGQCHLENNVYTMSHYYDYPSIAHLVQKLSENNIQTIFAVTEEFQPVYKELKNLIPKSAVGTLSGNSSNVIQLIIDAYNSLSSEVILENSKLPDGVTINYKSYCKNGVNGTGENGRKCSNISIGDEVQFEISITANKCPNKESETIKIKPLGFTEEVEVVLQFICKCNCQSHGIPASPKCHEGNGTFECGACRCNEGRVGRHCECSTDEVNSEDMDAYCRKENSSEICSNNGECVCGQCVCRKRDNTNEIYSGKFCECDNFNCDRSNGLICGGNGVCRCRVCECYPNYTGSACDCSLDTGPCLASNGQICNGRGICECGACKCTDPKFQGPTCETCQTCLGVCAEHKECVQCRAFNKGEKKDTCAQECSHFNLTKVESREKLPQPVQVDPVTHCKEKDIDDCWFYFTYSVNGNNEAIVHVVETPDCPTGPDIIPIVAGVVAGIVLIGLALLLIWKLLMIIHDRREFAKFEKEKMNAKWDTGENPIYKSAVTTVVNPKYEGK

[3] = molecular target: T1, α5β1 integrin on MC3T3-E1 murine …; experiment: antibody blocking of adhesion, MC3T3-E1 cells on tethered ligand
Procedure: MC3T3-E1 cells were labeled with 4 mM calcein-AM, a membrane-permeable green fluorescent dye, in 2 mM dextrose-DPBS for 30 min and resuspended in α-MEM with 10% FBS. Cells were seeded onto the surfaces at 200 cells/mm², and allowed to attach for 1 h at 37° C. For blocking antibody experiments, cells were incubated in the presence of function-perturbing antibodies (10 μg/ml) for 10 min with gentle agitation prior to cell seeding. […] Wells were then filled completely with dextrose-PBS, sealed, inverted, and centrifuged for 5 min at a prescribed speed on a Beckman Allegra 6 centrifuge (GH 3.8 rotor) to apply normal detachment forces. Media was then gently aspirated from the wells, and wells were refilled for post-spin image collection. Post/pre-spin cell ratios were determined by image analysis, and this adhesive fraction was plotted against ligand surface density to obtain cell adhesion profiles.
Function-perturbing antibodies directed against different integrin subunits were used to block adhesion to the engineered interfaces. Since integrins α₅β₁ and αᵥβ₃ represent the dominant adhesion receptors for FN in MC3T3-E1 cells, the contributions of these receptors to adhesion strength on the peptide-functionalized SAMs was examined. Surfaces were tethered with maximum density of ligand, and the relative cell adhesion was normalized to unblocked controls.

| Binder | ADH50 (ligand density required for half-maximal adhesion of MC3T3-E1 cells) [1] | ADH50 (ligand density required for half-maximal adhesion of MC3T3-E1 cells) [2] | FAK tyrosine-397 phosphorylation, FNIII7-10 surface against RGD-tethered surface [2] | cell proliferation rate (BrdU incorporation), FNIII7-10 surface against RGD-tethered surface [2] | binding result [3] |
| --- | --- | --- | --- | --- | --- |
| B1 | 2300 fmol/cm^2 | – | – | – | – |
| B2 | – | 70 fmol/cm^2 | ~3 fold | 2 fold | – |
| B3 | 1950 fmol/cm^2 | – | – | – | no binding |
